Av IC50, inhibition of NA uptake via hNET (log M (unit not given)) data for two molecules are collected here from US20060270832A1.

The assay concerns the target human noradrenaline transporter (hNET) (human), P23975. Description: cell-based or functional assay.

Sequence of human noradrenaline transporter (hNET) (human), P23975 (P23975 whole entry): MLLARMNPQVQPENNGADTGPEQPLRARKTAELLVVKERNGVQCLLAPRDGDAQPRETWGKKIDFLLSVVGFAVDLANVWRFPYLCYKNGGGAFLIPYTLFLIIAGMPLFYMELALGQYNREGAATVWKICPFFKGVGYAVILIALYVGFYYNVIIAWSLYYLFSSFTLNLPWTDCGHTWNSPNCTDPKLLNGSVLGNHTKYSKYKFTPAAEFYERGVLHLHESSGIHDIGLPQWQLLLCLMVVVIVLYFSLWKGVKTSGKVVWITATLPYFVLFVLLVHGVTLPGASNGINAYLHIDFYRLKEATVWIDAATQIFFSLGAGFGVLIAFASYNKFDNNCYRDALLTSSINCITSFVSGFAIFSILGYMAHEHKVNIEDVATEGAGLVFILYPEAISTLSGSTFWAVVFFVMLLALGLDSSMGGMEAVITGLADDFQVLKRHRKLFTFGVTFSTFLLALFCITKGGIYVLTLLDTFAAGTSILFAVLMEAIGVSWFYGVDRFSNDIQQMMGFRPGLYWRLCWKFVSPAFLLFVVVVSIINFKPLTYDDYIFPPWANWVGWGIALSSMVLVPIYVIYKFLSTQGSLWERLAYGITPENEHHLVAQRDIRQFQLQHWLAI

GYKLGCCGYKLCC (modifications not checked) [SEQ ID NO. 99] had an Av IC50, inhibition of NA uptake via hNET (log M (unit not given)) of -6.99. Molecule WKDLCCGYKLCHPC (modifications not checked) [SEQ ID NO. 85] had an Av IC50, inhibition of NA uptake via hNET (log M (unit not given)) of -7.05.
